# Test results from patent US20130059772A1, “Use of Repeat Sequence Protein Polymers in Personal Care Compositions” (DANISCO US INC., priority 2003, published 2013).
# B1: GC2596-26-D: SELP47K modified with two units of ALSYP (SEQ ID NO:36) peptides in each SELP47K unit; SEQ ID NO:32 (Example 4) (protein)
# chain: MDPVVLQRRDWENPGVTQLNRLAAHPPFASDPMGAGAGSGAGAGSALSYPGVGVPGVGVPGVGVPGVGVPGKGVPGVGVPGVGVPGVGVPALSYPGAGAGSGAGAGSGAGAGSGAGAGSALSYPGVGVPGVGVPGVGVPGVGVPGKGVPGVGVPGVGVPGVGVPALSYPGAGAGSGAGAGSGAGAGSGAGAGSALSYPGVGVPGVGVPGVGVPGVGVPGKGVPGVGVPGVGVPGVGVPALSYPGAGAGSGAGAGSGAGAGSGAGAGSALSYPGVGVPGVGVPGVGVPGVGVPGKGVPGVGVPGVGVPGVGVPALSYPGAGAGSGAGAGSGAGAGSGAGAGSALSYPGVGVPGVGVPGVGVPGVGVPGKGVPGVGVPGVGVPGVGVPALSYPGAGAGSGAGAGSGAGAGSGAGAGSALSYPGVGVPGVGVPGVGVPGVGVPGKGVPGVGVPGVGVPGVGVPALSYPGAGAGSGAGAGSGAGAGSGAGAGSALSYPGVGVPGVGVPGVGVPGVGVPGKGVPGVGVPGVGVPGVGVPALSYPGAGAGSGAGAGSGAGAGSGAGAGSALSYPGVGVPGVGVPGVGVPGVGVPGKGVPGVGVPGVGVPGVGVPALSYPGAGAGSGAGAGSGAGAGSGAGAGSALSYPGVGVPGVGVPGVGVPGVGVPGKGVPGVGVPGVGVPGVGVPALSYPGAGAGSGAGAGSGAGAGSGAGAGSALSYPGVGVPGVGVPGVGVPGVGVPGKGVPGVGVPGVGVPGVGVPALSYPGAGAGSGAGAGSGAGAGSGAGAGSALSYPGVGVPGVGVPGVGVPGVGVPGKGVPGVGVPGVGVPGVGVPALSYPGAGAGSGAGAGSGAGAGSGAGAGSALSYPGVGVPGVGVPGVGVPGVGVPGKGVPGVGVPGVGVPGVGVPALSYPGAGAGSGAGAGSGAGAGSGAGAGSALSYPGVGVPGVGVPGVGVPGVGVPGKGVPGVGVPGVGVPGVGVPALSYPGAGAGSGAGAGSGAGAMDPGRYQDLRSHHHHHH
# modifications: SELP 47K-P4
# B2: GC2596-26-E: collagen-like repeat sequence protein polymer, head-[(GAHGPAGPK)2(GAQGPAGPG)24(GAHGPAGPK)2]4-tail; SEQ ID NO:34 (Example 5) (protein)
# chain: MDPVVLQRRDWENPGVTQLNRLAAHPPFASDPMGAHGPAGPKGAHGPAGPKGAQGPAGPGGAQGPAGPGGAQGPAGPGGAQGPAGPGGAQGPAGPGGAQGPAGPGGAQGPAGPGGAQGPAGPGGAQGPAGPGGAQGPAGPGGAQGPAGPGGAQGPAGPGGAQGPAGPGGAQGPAGPGGAQGPAGPGGAQGPAGPGGAQGPAGPGGAQGPAGPGGAQGPAGPGGAQGPAGPGGAQGPAGPGGAQGPAGPGGAQGPAGPGGAQGPAGPGGAHGPAGPKGAHGPAGPKGAHGPAGPKGAHGPAGPKGAQGPAGPGGAQGPAGPGGAQGPAGPGGAQGPAGPGGAQGPAGPGGAQGPAGPGGAQGPAGPGGAQGPAGPGGAQGPAGPGGAQGPAGPGGAQGPAGPGGAQGPAGPGGAQGPAGPGGAQGPAGPGGAQGPAGPGGAQGPAGPGGAQGPAGPGGAQGPAGPGGAQGPAGPGGAQGPAGPGGAQGPAGPGGAQGPAGPGGAQGPAGPGGAQGPAGPGGAHGPAGPKGAHGPAGPKGAHGPAGPKGAHGPAGPKGAQGPAGPGGAQGPAGPGGAQGPAGPGGAQGPAGPGGAQGPAGPGGAQGPAGPGGAQGPAGPGGAQGPAGPGGAQGPAGPGGAQGPAGPGGAQGPAGPGGAQGPAGPGGAQGPAGPGGAQGPAGPGGAQGPAGPGGAQGPAGPGGAQGPAGPGGAQGPAGPGGAQGPAGPGGAQGPAGPGGAQGPAGPGGAQGPAGPGGAQGPAGPGGAQGPAGPGGAHGPAGPKGAHGPAGPKGAHGPAGPKGAHGPAGPKGAQGPAGPGGAQGPAGPGGAQGPAGPGGAQGPAGPGGAQGPAGPGGAQGPAGPGGAQGPAGPGGAQGPAGPGGAQGPAGPGGAQGPAGPGGAQGPAGPGGAQGPAGPGGAQGPAGPGGAQGPAGPGGAQGPAGPGGAQGPAGPGGAQGPAGPGGAQGPAGPGGAQGPAGPGGAQGPAGPGGAQGPAGPGGAQGPAGPGGAQGPAGPGGAQGPAGPGGAHGPAGPKGAHGPAGPKMDPGRYQLSAGRYHYQLVWCQK
# modifications: silk-elastin repeat sequence protein copolymer
# How the values were obtained:
# [1] = test system: cultured dermal fibroblasts; assay: UVB protection, follow-up MTT assay (pretreatment protocols); format: cell-based, human; settings: UVB control 79 ± 19
# Procedure: (§1) Two sets of duplicate cells were prepared using the four treatment protocols outlined in Table 24. One set of cells was used for an MTT assay while the other set of cells was used to measure the formation of ROS using the fluorescent DCF dye indicator.
# (§2) For this follow up study, the material was tested at concentrations of 0.14% and 0.014%. During the pretreatment phase, the test material was diluted in FGM (for treatments 1 and 2). […] For the MTT assay, cells that were not exposed to UVB or treated with test materials were used to represent 100% cell viability.
# [2] = test system: reactive oxygen species (ROS); assay: Fluorescent DCF dye assay after UVB; format: cell-based, human; settings: No UVB 0.031, UVB 0.057
# Procedure: Therefore, the aim of the follow-up study, was to determine if treatment with the test material before or during UVB exposure provided any additional survival benefit(s). Four different treatment regiments were employed using different combinations of pretreatment with the test material prior to UVB exposure and treatment with the material during UVB exposure. Cell survival was again assessed via an MTT assay 48 hours after the UVB insult. In addition, this second study also incorporated the use of 2′,7′-dichloro-dihydrofluorescein diacetate (DCF), which is a relatively non-fluorescent dye that can be loaded into cells and becomes fluorescent upon exposure to the reactive oxygen species (ROS) generated during UVB exposure (Carini et al., Il Farmaco 55:526-534 [2000]; and Chan et al., J. Cell. Biochem., 90:327-338 [2003]). The diacetate form of the dye can freely traverse cell membranes, however once inside of the cell intracellular esterases will cleave off the acetate side groups trapping the DCF dye within the cell.
# as §1, §2
# One hour prior to UVB exposure, the cell culture media were removed and the wells were washed with PBS to remove any residual RSPP test material in the set of cells used for the DCF assay. A 20 mM stock of DCF prepared in DMSO was diluted to 10 μM using PBS and 100 μl of this solution were added to each well. The plate was then returned to the incubator for 1 hour, to allow sufficient time for the cells to take up and trap the dye. After the 1-hour incubation, the cells were washed with PBS to remove any unincorporated dye and then exposed to UVB using the protocol described above. Forty-eight hours later, the 96-well plate was read using a fluorometer set for an excitation wavelength of 485 nm and an emission wavelength of 518 nm. The duplicate set of wells run for the MTT assay served as non-dye loaded blanks to account for any background fluorescence due to the cells or the test material.
# The mean fluorescence intensity was determined for each of the treatment groups (measured in relative fluorescence units or “RFU”).
# [3] = test system: cultured dermal fibroblasts; assay: UVB protection, initial MTT assay (material applied after UVB); settings: 0.14%, −UVB condition
# Procedure: In these experiments, the test material was tested at six concentrations with two duplicate sets of cells prepared. […] Changes in cell viability were then determined 48 hours post material application via an MTT assay, as described above.
# Fibroblasts were seeded into the individual wells of a 96 well plate in 100 μl FGM, and incubated overnight at 37±2° C. and 5±1% CO2. On the following day, the media were removed via aspiration to eliminate any non-adherent cells and replaced with 100 μl of fresh FGM. The cells were grown until confluent, with a media change every 48 to 72 hours.
# An UVLM-26 lamp was used as the source of UVB light. UV light intensity was measured using a UVX radiometer coupled to a UVB sensor probe (UV Products) to determine the time required to deliver an approximate dose of 50 mj/cm^2. Prior to UVB exposure, the FGM was replaced with 100 μl PBS. After exposure, the PBS was removed and replaced with FGM supplemented with either the test materials, 20 μM Trolox, or left unsupplemented. A duplicate set of cells was also prepared and treated as described above, with the exception that they were not exposed to UVB light. […] The cells were allowed to incubate with the test materials for 48 hours, and then changes in cell viability were determined via an MTT assay. […]
# After the 48-hour incubation, the cell culture medium was removed and the fibroblasts were washed with PBS to remove any remaining test material. […] The 96-well plate was then read at 540 nm using isopropyl alcohol as a blank.
# The mean MTT absorbance value for the negative control cells (non-UVB exposed and non test material treated cells) was calculated and used to represent 100% value for cell number. The individual MTT values from the cells undergoing the various treatments was then divided by the mean value for the negative control cells and expressed as a percent, to determine the change in cell viability caused by each treatment. MTT scores for each treatment are expressed as means±the standard deviation of the mean.
# elastase = assay: Elastase inhibition assay (fibroblast lysate, STANA substrate); format: biochemical, human
# Procedure: The RSPP test materials were also tested to determine their effect(s) on elastase activity. In these experiments, human dermal fibroblasts were used as a source of the elastase enzyme. This enzyme was partially purified from the fibroblasts by lysing the cells in an elastase buffer and retaining the soluble portion of the lysate. Portions of this fibroblast lysate were then incubated with test materials and a synthetic elastase substrate, Suc-(Ala3)-p-Nitroaniline (STANA). Elastase acts upon this substrate to release p-nitroaniline, which can be detected spectrophotometrically by measuring the absorbance at a wavelength of 405 nm. An inhibition of the elastase enzyme is noted by a decrease in the amount of released p-nitroaniline when compared to uninhibited enzyme.
# Cells were expanded and passed until a sufficient number of cells had been grown (not exceeding 10 passages). When a sufficient number of cells had been grown, the fibroblast lysate containing the elastase enzyme was prepared as follows:
# The fibroblasts were washed twice with 15 ml of phosphate buffered saline with each wash removed via aspiration. Ice cold PBS (7.5 ml) was then added to the flask and the cells were detached with a cell scraper. The detached cells/PBS was transferred to a 15 ml centrifuge tube on ice. The flask was rinsed again with 7.5 ml of PBS, which was also transferred to the 15 ml tube. […] The protein concentration of the fibroblast lysate was determined using the Pierce BCA Protein Assay kit (see below for details) and the fibroblast lysate was stored at −75° C. until used (for up to 1 year).
# Upon determining the protein concentration of the lysate, a small sample was obtained and the elastase activity of the lysate was determined at 1×, 0.5× and 0.25× concentrations. The activity was determined for each of the different concentrations in exactly the same way that the uninhibited sample was treated in the elastase assay (see below). […] After 1.25 hours, the well plate was removed and read in a 96-well plate reader at 405 nm. The mean absorbances were plotted versus concentration. […]
# [4] = test system: Fibroblasts (HDFn Cell Line)
# Procedure: Initial screening was conducted to identify a test range suitable to determine the effect of a broad range of test material concentrations on cell viability. […] Cultured fibroblasts were exposed to the test materials for 48 hours and then changes in cell viability were determined using an MTT assay (i.e., a colorimetric analysis of the metabolic activity of the cultured cells, described in greater detail below).
# The purple crystals are extracted from the cells with isopropanol and the amount of crystal formation quantified spectrophotometrically. […] A decrease in color intensity can be a sign of toxicity.
# Fibroblasts (Cascade Biologics, HDFn Cell Line, lot#1C0914) were seeded into the individual wells of either a 96-well plate (for the initial pilot work to determine concentration effects on cell viability) in 100 μl of Fibroblast Growth Media (FGM) or in 12-well plates (for the measurement of collagen, elastin and MMP-1) in 1.0 ml of FGM and incubated overnight at 37±2° C. and 5±1% CO2. On the following day, the medium was removed via aspiration to eliminate any non-adherent cells and replaced with fresh FGM. The cells were grown until confluent, with a media change every 48 to 72 hours. Upon reaching confluency, the cells were treated for 24 hours with Dulbecco's Modified Essential Media (DMEM) supplemented with 1.5% FBS to wash out any effects from the growth factors included in the normal FGM. After this 24-hour wash out period, the cells were treated with the test materials at the specified concentrations dissolved in DMEM with 1.5% FBS. Untreated cells (negative controls) received DMEM with 1.5% FBS. The cells were incubated for 48 hours and at the end of the incubation period cell culture medium was either discarded (pilot work) or collected and stored frozen at −75° C. The test materials were tested in triplicate.
# After the 2-day incubation, the cell culture medium was removed and the fibroblasts were washed twice with PBS to remove any remaining test material. After the final wash, either 100 μl (96-well plates) or 300 μl (12-well plates) of DMEM supplemented with 0.5 mg/ml MTT were added to each well and the cells were incubated for 1 hour at 37±2° C. and 5±1% CO2. After the incubation, the DMEM/MTT solution was removed and the cells were washed again once with PBS and then either 100 μl (96-well plates) or 1 ml (12-well plates) of isopropyl alcohol were added to each well to extract the purple formazin crystals. For the 12-well plates, two hundred microliters of the isopropyl extracts was transferred to a 96-well plate. The 96-well plates were read at 540 nm using isopropyl alcohol as a blank. The mean MTT absorbance value for the negative control cells was calculated and used to represent 100% value for cell viability. The individual MTT values from the cells undergoing the various treatments were then divided by the mean value for the negative control cells and expressed as a percent, to determine the change in cell viability caused by each treatment.
# [5] = T1 (24 hour pretreatment, absent during UVB, present 48 hours after) 0.014%
# [6] = T1 (24 hour pretreatment, absent during UVB, present 48 hours after) 0.14%
# [7] = T2 (24 hour pretreatment, present during UVB and 48 hours after) 0.014%
# [8] = T2 (24 hour pretreatment, present during UVB and 48 hours after) 0.14%
# [9] = T3 (present only 48 hours after UVB) 0.014%
# [10] = T3 (present only 48 hours after UVB) 0.14%
# [11] = T4 (no pretreatment, present during UVB and 48 hours after) 0.014%
# [12] = T4 (no pretreatment, present during UVB and 48 hours after) 0.14%
molecule,measurement,setting,value
B1,Percent Viability,[1]; [5],85 ± 7%
same,Percent Viability,[1]; [6],122 ± 20%
same,Percent Viability,[1]; [7],78 ± 4%
same,Percent Viability,[1]; [8],126 ± 25%
same,Percent Viability,[1]; [9],88%
same,Percent Viability,[1]; [10],97 ± 14%
same,Percent Viability,"[1]; T3 (present only 48 hours after UVB) 0.14%, listed as 2596-26-D",~100%
same,Percent Viability,[1]; [11],86 ± 6%
same,Percent Viability,[1]; [12],121 ± 19%
same,RFU/Viability,[2]; [5],0.038
same,RFU/Viability,[2]; [6],0.038
same,RFU/Viability,[2]; [7],0.035
same,RFU/Viability,[2]; [8],0.032
same,RFU/Viability,[2]; [9],0.053
same,RFU/Viability,[2]; [10],0.039
same,RFU/Viability,[2]; [11],0.052
same,RFU/Viability,[2]; [12],0.026
same,number of viable cells greater than −UVB untreated cells,[3],54%
B2,Percent Inhibition,elastase; 0.1%,−13%
same,Percent Inhibition,elastase; 0.5%,−20%
same,Percent Inhibition,elastase; 1%,−5%
same,concentrations with adverse effects on cell viability,[4],≥ 0.07%
